Assay: yeast display, Sf9 membrane polyspecificity reagent, FACS + sequencing; frameworks hold sequencing errors
Procedure, shortened: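 After 36–48 hours of galactose induction, yeast (Saccharomyces cerevisiae BJ5465) displaying a synthetic nanobody library were stained at 4 °C for 1 hour with 10% biotinylated, detergent-solubilized Sf9 membrane reagent. Streptavidin microbeads enriched the stained cells before FACS sorting into low and high (top ~1%) gates on anti-HA and streptavidin fluorescence. Each clone's polyreactivity label reflects its gate of origin.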

| Sequence | polyreactivity (PSR sort gate) |
| --- | --- |
| QVQLVESGGGLVQAGGSLRLSCAASGIIFASNARGWYIQAPGKERELVASINRRGSSTYYADSVKGRFTISRDNAKNTVYLQMNSLKPEDTAVYYCAARAFNSGLGYTRYDYWGQGTQVTVSS | high polyreactivity |
| QVQLVESGGGLVQAGGSLRLSCAASGLIFAWYAMGWYRQAPGKERELVATISWNGDRTYYADSVKGRFTISRDNAKNTVYLQMNSLKPEDTAVYYCAARFGSGFNYWGQGTQVTVSS | high polyreactivity |
| QVQLVESGGGLVQAGGSLRLSCAASGRIFLPYAMGWYGQAPGKERELFASISGSGGRTYYADSVKGRFTISRDHANNTVYLQMISQKPEDTAVYYCANRPVYAGYRFNYWGQGTQLTVSS | high polyreactivity |
| QDQLVESGGGLVQAGGSLRLSCAASGRTFFGYAMGWYRQAPGKERELVAAITTSGGSTYYADSVKGRFTISRDNAKNTVYLQMNSLKPEDTAVYYCAARAYYGYYYWGQGTQVTVSS | low polyreactivity |
| QVHLVESGGGLVQAGGSLRLSCAASGIIFVLYTMGWYRQAPGKERELVATINWGGGNTYYADSLKGRFTISRDNAKNTVYLQMNSLKPEDTAVYYCAAAYTWYGYSQAYYYWGQGTQVTVSS | low polyreactivity |
| QDQLVDSGGGLVQAGGSLRFSCAASGFIFRFNAMGWYRQAPGKERELVADIRWSSGSTYYADSVKGRYTISRDNAKNTVYLEMNSLKPEDTAVFYCAVTYLRVHYKFTPFDYWGQGTQVTVSS | low polyreactivity |
| QVQLVESGGGLVQAGGSLRLSCAASGSTFFIYAMGWYRQAPGKERELVAAITSGGTYADSVKGRFTISRDNAKNTVYLQMNSLKPEDTAVYYCNAGNNVVVDYDYWGQGTQVTVSS | low polyreactivity |
| QVQLVESGGGLVQAGGSLRLSCAASGSTFSSYAMGWYRQAPGKERELVAAITSGTRTYYADSVKGRFTISRDNAKNTVYFQMNSLKPEDTAVYYCAAPTSSSGRYHRYYYWVQGTQVTVSS | high polyreactivity |
| QVQLVESGGGLVQAGGSLRLSCAASGFMFDGYAMGWYRQAPGKERELVAAINFSGGSTYYADSVKGRFTISRDNAKNTVYLQMNSLKPEETAVYYCNADLEWNWVQFGYGYWGQGTQVTVSS | low polyreactivity |
| QVQLVESGGGLFQAGASLRLSCAASGFIFTDYAIGWDTQAPGKERELVAAISSGGRTYYADSVKGRFTISRDNAKNTVYLQMNSLKPEDTAVYYCARGGRAEGWGQGTQVTVSS | high polyreactivity |
| QFQLVESGGGLVQAGGSLRLSCAASGFIFYKYAMGGYRQAPGKERELVAAISSGGSPYYADSVKGRFTISRDNAKNTVYLQMNSLKPEDTAVYYCNKVYRSYRSGFYGGDYWGQGTQVTVSS | high polyreactivity |
| QVQLVESGGGLVQAGGSLRLSCAASGSTFVRNAMGWYRQAPGKERELVAAISGSGSRTYYADSVKGRFTISRDNAKNTVYLQMNSLKPEDTAVYYCAARITAHEYDYWGQGTQVTVSS | high polyreactivity |
| QVQLVESGGGLVQAGGSLRLSCAASGFTFLVYAMGWYRQAPGKERELVAAITWSGDSTYYADSVKGRFTISRDNAKNTVYLQMNSLKPEDTAVYYCAAAYRYGTLYYYWGQGTQVTGSS | low polyreactivity |
| QVQLVESGGGLVQAGGSLRLSCAASGRTFTFYAMGWYRQAPGKERELVAAIRRGGSTIYADSVKGRFTISRDNAKNTVYLQMNSLKPEDTAVYYCNKRVWYPYWTLDYWGQGTQVTVSS | low polyreactivity |
| QVQLVESGGGLVQAGGSLRLSCAASGSIFSTYAMGWYRQAPVKERELVAAINSGDSTSYADSVKGRFTISRDNAKNTVYLQMNSLKPEDTAVYYCAAKTGGYWYLRRTARYESWGQGTQVTVSS | low polyreactivity |
| QGQRVESGGGLVQAGGSLRLSCAASGSIFTYAMGGSRQAPGNERELGAAISRSGGRTYYADSGKGRFTISRDNAKNTVSLHMNSLKPEDTAVYYCAALLLKDYDYWGPGTQVTVSS | low polyreactivity |
| QVQLVESSGGLVQAGGSLSLICAASVLIFNFYSMGWYRQAPGKERELVDAISWNAGSTYYADSVKGRFTISRDNAKNTVYLQMNSLKPEDTAVYYCAVLPGRYDKTASHYDYWGQGTQVTVSS | low polyreactivity |
| QVQLVESGGGLDQAGGTLRLSSAASGSTFYTNAMGWYRQAPGKERELVAAISGSGGSTYYADSVKGRFTISRDNAKNTVYLQMNSLKPEDNAVYYCAARSRYYDTRFDYWGQGTQVTVSS | low polyreactivity |
| QVQLVESGGGLVQAGGSLRLSCAASGFIFVRYAMGWYRQAPGKERELVAAITKGGGRTYYADSVKGRFTISRDNAKNTVYLQMNSLKPEDTAVYYCATAGAHGRERDYWGQGTQVTVSS | high polyreactivity |
| QVQLVESGGGLVQAGGSLRLSCAASGSTFRKYVMGWYRQAPGKERELDAGITSRGGSTYYADSVKGRFTISRDNAKNTVYLQMNSLKPEDSAVYYCAKRAYGTALYRGYGYWGQGTQVPVSS | low polyreactivity |
| QVQLEESGGGLVQAGGSLRLSFAASGFTFVRNTMGWDRQAPGKERELVAAISRSGGSTYYADSVKGRFTISRDKAKNTVYLQMNSLKPEDTAVYYCNAYRYVHYDWGQGTQVTVSS | high polyreactivity |
| QVQLVESVGGLVQAGGSLRLSCAASGSIFADYAMGWYRQAPGKERELVAAMTGSGGRTYYADSVKGRFTISRDNAKNTVYLHMNSLKPEDTAVYYCAAYQVGWDPYPRYDYWGQGTQVTVSS | low polyreactivity |

| Sequence | polyreactivity (PSR sort gate) |
| --- | --- |
| QVQHVESGGGLVQAGGSLRLSCAASGFTFGSYAMGWYRQAPGKERELVARISSDGSTNYADSVKGRFTISRDNPKNTVYLQMNSLKPEDTAVYYCAADRVVEYADYYYWGQGTQVTVSS | low polyreactivity |
| QVQLVESGGGLVQAGGSLRLSCAASGSTFYGYAMGWYRQAPGKERELVAVISRSGGGTSYADSVKGRFTISRDNAKNTVYLQMNSLKPEDTAVYYCNAAKYLYRHGFMSAGDMYYWGQGTQVTVSS | high polyreactivity |
| QVQLVESGGGLVQAGGSLRLSCAASGFTSRLYAMGWYRQAPGKEREFVAAISWDGTRTYYADSVKGRFTISRDNAKNTVYLQMNSLKPEDTAVYYCNARRRQWQARYDYWGQGTQITVSS | high polyreactivity |
| QVQLVESGGGLVQAGGSLRLSCPASGFTILDYAMGWYRQAPGKEREMVATINWSDVSTYYADSVKGRFTISRDTAKNTVYLQMNSLKPEDTAVYYCAVDVLTVGQSYDHWGQGTQVTVSS | high polyreactivity |
| QVQLVESGGGLVKAGGSLRLSCAASGRTFRAYAMGWYRQAPGKERELVAAITSGGSTKYADSVKGRFTISRDNAKNTVYLQMNSLKPEETAVYYCNARFDRVYQLKWWYSYDYWGQCTQVTVSS | high polyreactivity |
| QVQLVESGGGLVQAGGSLRLSCAASGFIFVSKAMGWSRQAPGKERELVAAITTGGSTNYADSVKGRFTISRDNAKYTVYLLMNSLKPEDTAVYYCAADGRYSTYIYLHDYWGQGTQVTVSS | low polyreactivity |
| QVQLVESGGGLVQAGGSLRLSCAASGITFVLYAMGWYRQAPGKERELVAAITWRGGSTYYADSVKGRFTISRDNAKNTVYLQMNSLKPEDTAVYYCAAVPFTSYRQGDYWGQGTQVTVSS | low polyreactivity |
| QVQLVESGGGLVQAGGSLRLSCAASGSTFHNYAMGCYRQAPGKERELVAGISVRGGGTYYADSVKGRFTISRDNAKNTVYVQMNSLKPEDTAVYYCNARSWYYVWRKGYRHGDYWGQGTQVTVSS | high polyreactivity |
| QVQLVESGGGLVQAGGSLRLSCAASGRIIGRYAMGWYRPAPGKERELVAAISSSGSTYYADSVKGRFTISRDNAKNTVYLQMNSLKPEDTAVYYSAAYYRGRAYISYGYWGQGTQVTVSS | high polyreactivity |
| QVQLVESGGGLVQAGGSLRLSCAASGSTFNQNAMGWYRQATGKERELVAAITVDGSSTYYADSVKGRFTISRDNAKNTVYLQMNSLKPEDTAVYYCAAGYSARSSGYTGGYDYWGQGTQVTVSS | high polyreactivity |
| QVQLVESGGGLFQAGGSLRLSCAASASIIPHNAMGWYRQAPGKERELVASITSRGGITYYADSVKGRFTISRDNAKNTVYLQMNSLKPEDTAVYYCAKDHAYTSAPHQYASEYYYWGQGTQVTVSS | low polyreactivity |
| QVQLVESGGGLVQAGGSLRLSCAASGRTFSLYTMGWYRQAPGKERELVAAISSGDSTNYADSVKGRFTISRDNAKNTVYLQMNSLKPEDTAVYYCAKQQDSTSEFSTSDRRQYDYWGQGTQVTVSS | low polyreactivity |
| QVQLVESGGGLVQAGGSLRLSCAASGFTIRWYTMGWYRQAPWKERELVATINWSGGSTYYADSVKGRFTISRDNAKNTVYLQMNSLIPEDTAVYYCARRQSGTIKTRMDYWGQGTQVTVSS | high polyreactivity |
| QVQLVESGGGLDQAGGRLRLSCAASGFTIRDNAMGWYRQAPGKEMELVAAISRSGDSTNYADSVKGRFTISRDNAKNTVYLQMNSLKPEDTAVYYSAAKRRYTTYDYWGQGTLVTVSS | high polyreactivity |
| QVQLEDSGGGLVQAGRSLLLSFAASGNTFWLNAKGRYRQAPGKERELVAAITYTDGSTYADSVKGRFTISRDNAKITVYLQMNSLKPEDSAVYYCAARYQWDWRDYYYWGQGTQVTVSS | low polyreactivity |
| QVQLVESGGGLVQAGGSLRLSCAASGFIFSTYAMGWYRQAPGKERELVAAITRTGTRTYYADSVKGRFTISRDNAKNTVYLQMNSLKPEDTAVYYCAARAGGEAYGSRYGYWGQGTQVTVSS | high polyreactivity |
| QVQLVESGGGLVQAGGSLRLSCAASGLTFAGYAMGWYRQAPGKERELVAAISSGGRTNYADSVKGRFTISRDNAKNTVYLHMNSLKPADTAVYYCAARISTHAPHRRLTYEYWGQGTQVTVSS | low polyreactivity |
| QVQLVESGGGLVQAGGSLRLSCAASGRTFVYNAMGWYRQAPGKERELVAAISAIDGSTYYADSVKGRFTISRDNAKNTVYLQMNSLKPEDTAVYYCAADTQLEASHKDRYEYDYWGQGTQVTVSS | low polyreactivity |
| QVQLVESGGGLVQAGGSLRLSCAASGSTFYTNAMGWYRPAPGKVRELVAAISSSGDSTYYADSVKGRFTISRDNAKNTVYLQMKSLKPDDTAVYYCNADLRSYNGFRYYYWGQGTKVTVSS | low polyreactivity |
| QVQLVESGGGLVQAGGSLRLSCAASGNIIYQNAKGLYRQAPGKERELVAAITGRGSSTYYADSVKGRFTISRDNAKNTVYLQMNSMKPEDTAVYYCAADTTPYDGYYGHGYWGQGTQVTVSS | low polyreactivity |
| QVQLQESGGGLVQAGGSLSLRCSASRNITRSSDLGWYHQAPGKEREFVASITSGGTTYYADSVKGRFTISRDNAKNTVYLEMNSLKPEDTAVYYCAVGDQADAEFGYWGQGTQVTVSS | low polyreactivity |

From the nanobody polyreactivity screen of Harvey et al. (2022)
